The numbers were not newly measured in PMC12071589, which cites them from elsewhere.

What is called Kd is the equilibrium constant for the complex coming apart.

In this data set the target is TROP2 (Homo sapiens) (UniProt P09758).
Chain of TROP2 (Homo sapiens) (P09758 27-274): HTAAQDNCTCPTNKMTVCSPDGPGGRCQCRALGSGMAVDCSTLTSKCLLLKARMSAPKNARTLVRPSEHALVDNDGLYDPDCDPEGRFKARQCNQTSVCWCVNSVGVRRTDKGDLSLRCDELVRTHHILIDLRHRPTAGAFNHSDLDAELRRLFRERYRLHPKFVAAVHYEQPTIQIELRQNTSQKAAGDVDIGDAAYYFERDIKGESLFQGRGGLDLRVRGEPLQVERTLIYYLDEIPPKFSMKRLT

Consider sacituzumab, for which the Kd was 0.26 nM.
